Patent publication US20200347136A1, “CONSTRAINED CYCLIC PEPTIDES AS INHIBITORS OF THE CD2:CD58 PROTEIN-PROTEIN INTERACTION FOR TREATMENT OF DISEASES AND AUTOIMMUNE DISORDERS” (Board of Supervisors for the University of Louisiana System, priority 2019, published 2020)

What was measured:
[1] = molecular target: CD58 expressed on OVCAR-3 and HFLS-RA cells (human) (UniProt P19256); experiment: cell adhesion inhibition (Jurkat CD2 / CD58 cells); HFLS-RA cells
[2] = molecular target: CD58 expressed on OVCAR-3 and HFLS-RA cells (human) (UniProt P19256); experiment: cell adhesion inhibition (Jurkat CD2 / CD58 cells); OVCAR-3 cells

Chain of CD58 expressed on OVCAR-3 and HFLS-RA cells (human) (P19256 29-250): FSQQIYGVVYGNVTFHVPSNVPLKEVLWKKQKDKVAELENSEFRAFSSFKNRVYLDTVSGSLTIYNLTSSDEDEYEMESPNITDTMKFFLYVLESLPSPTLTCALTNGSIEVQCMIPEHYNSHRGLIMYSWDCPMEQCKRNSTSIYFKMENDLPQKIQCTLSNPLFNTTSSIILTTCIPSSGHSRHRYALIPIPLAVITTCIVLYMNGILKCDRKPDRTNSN

Substance | IC50 [1] [µM] | IC50 [2] [µM]
Control | > 100 | > 100
SFTI-wt (control) | > 50 | > 50
